PMC3702553 (2013)

B1: full length wild-type GST-SNX9 (sorting nexin 9) [not stated] / clathrin heavy chain (CHC) [human (endogenous in HeLa)] (parent complex)
chain 1: MATKARVMYDFAAEPGNNELTVNEGEIITITNPDVGGGWLEGRNIKGERGLVPTDYVEILPSDGKDQFSCGNSVADQAFLDSLSASTAQASSSAASNNHQVGSGNDPWSAWSASKSGNWESSEGWGAQPEGAGAQRNTNTPNNWDTAFGHPQAYQGPATGDDDDWDEDWDGPKSSSYFKDSESADAGGAQRGNSRASSSSMKIPLNKFPGFAKPGTEQYLLAKQLAKPKEKIPIIVGDYGPMWVYPTSTFDCVVADPRKGSKMYGLKSYIEYQLTPTNTNRSVNHRYKHFDWLYERLLVKFGSAIPIPSLPDKQVTGRFEEEFIKMRMERLQAWMTRMCRHPVISESEVFQQFLNFRDEKEWKTGKRKAERDELAGVMIFSTMEPEAPDLDLVEIEQKCEAVGKFTKAMDDGVKELLTVGQEHWKRCTGPLPKEYQKIGKALQSLATVFSSSGYQGETDLNDAITEAGKTYEEIASLVAEQPKKDLHFLMECNHEYKGFLGCFPDIIGTHKGAIEKVKESDKLVATSKITLQDKQNMVKRVSIMSYALQAEMNHFHSNRIYDYNSVIRLYLEQQVQFYETIAEKLRQALSRFPVM
chain 2: MAQILPIRFQEHLQLQNLGINPANIGFSTLTMESDKFICIREKVGEQAQVVIIDMNDPSNPIRRPISADSAIMNPASKVIALKAGKTLQIFNIEMKSKMKAHTMTDDVTFWKWISLNTVALVTDNAVYHWSMEGESQPVKMFDRHSSLAGCQIINYRTDAKQKWLLLTGISAQQNRVVGAMQLYSVDRKVSQPIEGHAASFAQFKMEGNAEESTLFCFAVRGQAGGKLHIIEVGTPPTGNQPFPKKAVDVFFPPEAQNDFPVAMQISEKHDVVFLITKYGYIHLYDLETGTCIYMNRISGETIFVTAPHEATAGIIGVNRKGQVLSVCVEEENIIPYITNVLQNPDLALRMAVRNNLAGAEELFARKFNALFAQGNYSEAAKVAANAPKGILRTPDTIRRFQSVPAQPGQTSPLLQYFGILLDQGQLNKYESLELCRPVLQQGRKQLLEKWLKEDKLECSEELGDLVKSVDPTLALSVYLRANVPNKVIQCFAETGQVQKIVLYAKKVGYTPDWIFLLRNVMRISPDQGQQFAQMLVQDEEPLADITQIVDVFMEYNLIQQCTAFLLDALKNNRPSEGPLQTRLLEMNLMHAPQVADAILGNQMFTHYDRAHIAQLCEKAGLLQRALEHFTDLYDIKRAVVHTHLLNPEWLVNYFGSLSVEDSLECLRAMLSANIRQNLQICVQVASKYHEQLSTQSLIELFESFKSFEGLFYFLGSIVNFSQDPDVHFKYIQAACKTGQIKEVERICRESNCYDPERVKNFLKEAKLTDQLPLIIVCDRFDFVHDLVLYLYRNNLQKYIEIYVQKVNPSRLPVVIGGLLDVDCSEDVIKNLILVVRGQFSTDELVAEVEKRNRLKLLLPWLEARIHEGCEEPATHNALAKIYIDSNNNPERFLRENPYYDSRVVGKYCEKRDPHLACVAYERGQCDLELINVCNENSLFKSLSRYLVRRKDPELWGSVLLESNPYRRPLIDQVVQTALSETQDPEEVSVTVKAFMTADLPNELIELLEKIVLDNSVFSEHRNLQNLLILTAIKADRTRVMEYINRLDNYDAPDIANIAISNELFEEAFAIFRKFDVNTSAVQVLIEHIGNLDRAYEFAERCNEPAVWSQLAKAQLQKGMVKEAIDSYIKADDPSSYMEVVQAANTSGNWEELVKYLQMARKKARESYVETELIFALAKTNRLAELEEFINGPNNAHIQQVGDRCYDEKMYDAAKLLYNNVSNFGRLASTLVHLGEYQAAVDGARKANSTRTWKEVCFACVDGKEFRLAQMCGLHIVVHADELEELINYYQDRGYFEELITMLEAALGLERAHMGMFTELAILYSKFKPQKMREHLELFWSRVNIPKVLRAAEQAHLWAELVFLYDKYEEYDNAIITMMNHPTDAWKEGQFKDIITKVANVELYYRAIQFYLEFKPLLLNDLLMVLSPRLDHTRAVNYFSKVKQLPLVKPYLRSVQNHNNKSVNESLNNLFITEEDYQALRTSIDAYDNFDNISLAQRLEKHELIEFRRIAAYLFKGNNRWKQSVELCKKDSLYKDAMQYASESKDTELAEELLQWFLQEEKRECFGACLFTCYDLLRPDVVLETAWRHNIMDFAMPYFIQVMKEYLTKVDKLDASESLRKEEEQATETQPIVYGQPQLMLTAGPSVAVPPQAPFGYGYTAPPYGQPQPGFGYSM

Variants of: B1
Assay: GST pull-down, densitometry of immunoblots; lysates from asynchronously growing HeLa cells; 3-4 independent experiments; parent: 1; read off a plot

Point of comparison: chain 1 W165S, ratio to parent ~0.05. Against it:
- chain 1 W108S, chain 1 W111S — higher, ~0.06
- chain 1 W165S, chain 1 W169S — higher, ~0.29
- chain 1 W108S — higher, ~0.44
